Data taken from article PMC4332252 (The Journal of Cell Biology, 2015).

T1: Plk4-EGFP (Drosophila melanogaster, UniProt O97143 1-769)
T1 sequence (looked up): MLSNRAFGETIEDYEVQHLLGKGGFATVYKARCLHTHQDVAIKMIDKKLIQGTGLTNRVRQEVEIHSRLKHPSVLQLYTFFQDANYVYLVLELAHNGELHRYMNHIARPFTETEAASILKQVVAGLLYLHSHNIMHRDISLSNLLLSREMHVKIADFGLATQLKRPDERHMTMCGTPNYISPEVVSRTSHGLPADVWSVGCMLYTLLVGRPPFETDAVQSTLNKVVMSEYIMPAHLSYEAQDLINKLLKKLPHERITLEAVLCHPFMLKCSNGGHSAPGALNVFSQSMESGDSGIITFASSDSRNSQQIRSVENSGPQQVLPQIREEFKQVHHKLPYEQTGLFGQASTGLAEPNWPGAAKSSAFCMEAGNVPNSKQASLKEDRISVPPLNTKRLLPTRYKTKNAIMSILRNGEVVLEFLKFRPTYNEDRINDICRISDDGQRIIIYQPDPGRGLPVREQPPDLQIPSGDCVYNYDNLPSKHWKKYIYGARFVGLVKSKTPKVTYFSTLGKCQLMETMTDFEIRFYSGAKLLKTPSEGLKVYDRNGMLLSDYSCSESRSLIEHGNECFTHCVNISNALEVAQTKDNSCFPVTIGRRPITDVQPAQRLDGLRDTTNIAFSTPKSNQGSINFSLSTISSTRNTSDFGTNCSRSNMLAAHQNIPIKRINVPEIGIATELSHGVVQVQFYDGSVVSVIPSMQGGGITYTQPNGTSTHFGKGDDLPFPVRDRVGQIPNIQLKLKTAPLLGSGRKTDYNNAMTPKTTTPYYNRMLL


Key:
SEC-MALS = molecular target: the molecule itself; assay: SEC-MALS
Plk4-EGFP = molecular target: T1, Plk4-EGFP; assay: co-IP

Row | fold increase of bound Plk4-myc with Asl coexpressed, against without Asl (Plk4-EGFP) [fold] | Binder | stoichiometry N (SEC-MALS)
1 | – | His6-Asl-C (aa 626-994) (domain or fragment, Drosophila melanogaster, UniProt Q9VNE4 626-994, looked up) EAVAVAKESSENCSKCIESIAEITKAEIQLLKLQNVNSMQAKELKELEHALEQSKNLQAEMQEKIELSNKQDELISDLKERAKQFEAYIRQQEEHKQQNKCTPSPKSNSVSPSDPSPKELTQNRIRLIEQRVRDEMAKLFAAELKRFTNRLQKSEERSQCLQREYQTVCAELQQRQTEVDLLKQTILAERENIDEILAGREEKQKEMLQKCRQELQAKNQRIAELLREVEEQHASIDSERQSMKAVMAQWEKQRQSVDQVEHHWRQQLESLRSTHEEAMRSAQQRYQSAKRTAHNYKLYAEDKEAHMKREYERIKHEYELSLAKIEATMNQHLERRSREKHRDKENVPSNSSSDPITNSNRKPKGNGHS | 3
2 | – | His6-Asl-A (aa 1-357) (domain or fragment, Drosophila melanogaster, UniProt Q9VNE4 1-357, looked up) MNTPGISLFQGADALNINSTLDRQEEEEALQDQKRREEELGRIMVNAFDDLLDEENTIDSTTNYQSELEQPPVLPNYPSHPHHKPLQDDAQRANEIEMHRLQILLESKNNELQNVNQVANAAHKKLDDLQKHLSIMQAELDRAIREKQNTHELLVETKETCSNKDSDLDKLRSEKKQLEEDNTRLVGQLEAAKTLLTDVQSKYDMVQASKQKWEERNADLRLKQMEEAHRAQSDLLQQQLCQMKDQLDRKQNELDQINSRYNALQSGHETMLVDKAAKINELSQALDEAQMRCNQLSARPDLQAENRRQQQCIVDLKARIAYLEQTVASLHERLNETTTELDLIDSVIQQHQADESP | 2
3 | – | His6-Asl-B (aa 358-625) (domain or fragment, Drosophila melanogaster, UniProt Q9VNE4 358-625, looked up) TSRLSQMGGSRLVGSTPLNPLDRVGHIKQELYRALGNLKNKREEVRRLEKLLEERNQELRVLRDQENQSLVQLETLNEGKMRLENKVKAMQQELEEQKHRSQQESDVHSQLNSIVAERDALREKRQQIEEDLEQLKQQNESLQRNYDQLSQENRQLRTRETADNLRLELERHKILLRDSQSEVERLKKLYSDIATDKESLGYELRKLRESDTLKELQDQRQNLATVQRNLQLAEMKSEELKKLLETEKLSHERDLQALRQRSEREKRE | 2
4 | ~4 | Plk4-myc (natural protein, Drosophila melanogaster, UniProt O97143 1-769, looked up) MLSNRAFGETIEDYEVQHLLGKGGFATVYKARCLHTHQDVAIKMIDKKLIQGTGLTNRVRQEVEIHSRLKHPSVLQLYTFFQDANYVYLVLELAHNGELHRYMNHIARPFTETEAASILKQVVAGLLYLHSHNIMHRDISLSNLLLSREMHVKIADFGLATQLKRPDERHMTMCGTPNYISPEVVSRTSHGLPADVWSVGCMLYTLLVGRPPFETDAVQSTLNKVVMSEYIMPAHLSYEAQDLINKLLKKLPHERITLEAVLCHPFMLKCSNGGHSAPGALNVFSQSMESGDSGIITFASSDSRNSQQIRSVENSGPQQVLPQIREEFKQVHHKLPYEQTGLFGQASTGLAEPNWPGAAKSSAFCMEAGNVPNSKQASLKEDRISVPPLNTKRLLPTRYKTKNAIMSILRNGEVVLEFLKFRPTYNEDRINDICRISDDGQRIIIYQPDPGRGLPVREQPPDLQIPSGDCVYNYDNLPSKHWKKYIYGARFVGLVKSKTPKVTYFSTLGKCQLMETMTDFEIRFYSGAKLLKTPSEGLKVYDRNGMLLSDYSCSESRSLIEHGNECFTHCVNISNALEVAQTKDNSCFPVTIGRRPITDVQPAQRLDGLRDTTNIAFSTPKSNQGSINFSLSTISSTRNTSDFGTNCSRSNMLAAHQNIPIKRINVPEIGIATELSHGVVQVQFYDGSVVSVIPSMQGGGITYTQPNGTSTHFGKGDDLPFPVRDRVGQIPNIQLKLKTAPLLGSGRKTDYNNAMTPKTTTPYYNRMLL | –
